The results in this text go back to patent publication US20080138847A1, “Bcl-2 family member and BH-3 only proteins for use in development of peptidomimetics” (priority 2004, published 2008).

Where no end group is shown, it is not given here.

For one experiment, the target named is T1, CED-9 (residues 68-251) (Caenorhabditis elegans, UniProt P41958 68-251).
T1 construct: range 68-251; Form used in isothermal titration calorimetry
T1 sequence (looked up): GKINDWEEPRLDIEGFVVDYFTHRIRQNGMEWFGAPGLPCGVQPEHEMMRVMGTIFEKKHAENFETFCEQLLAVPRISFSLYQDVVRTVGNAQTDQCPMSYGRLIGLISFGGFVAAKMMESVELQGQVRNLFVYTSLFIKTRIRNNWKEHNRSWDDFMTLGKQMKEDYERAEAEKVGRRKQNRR
The experiment can be described thus: isothermal titration calorimetry (ITC). The text has this: The EGL-1/CED-9 complex adopts a compact, globular fold, resembling a single folding unit. CED-9 comprises 7 α helices, with the central hydrophobic helix α5 surrounded by 6 helices and several surface loops. A 27-amino acid fragment of the EGL-1 protein (residues 47-73) forms a single amphipathic α helix, packing against CED-9 helices α2, α3, α4, α5, and α7 over an extended hydrophobic surface cleft. Residues N- or C-terminal to the EGL-1 helix were disordered in the crystals and thus are not involved in binding to CED-9.
Background: ITC needs no label: the signal is the heat of the interaction.

Experiment [1] has as its target T2, CED-9 protein (residues 1-251) (Caenorhabditis elegans, UniProt P41958 1-251).
T2 construct: range 1-251
T2 sequence (looked up): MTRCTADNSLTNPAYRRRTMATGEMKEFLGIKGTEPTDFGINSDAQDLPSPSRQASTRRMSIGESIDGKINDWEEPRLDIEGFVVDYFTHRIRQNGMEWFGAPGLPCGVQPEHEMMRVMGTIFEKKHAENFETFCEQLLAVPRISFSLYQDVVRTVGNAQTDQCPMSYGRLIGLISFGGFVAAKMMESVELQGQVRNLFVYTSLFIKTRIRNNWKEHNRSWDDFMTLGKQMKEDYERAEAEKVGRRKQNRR
As to the kind of experiment: EGL-1 missense mutants tested for interaction with CED-9 (Example 1).

Experiment [2] addresses T3, CED-9 (construct not stated) (Caenorhabditis elegans, UniProt P41958 1-251, limits assumed).
T3 construct: Also stands for the worm's own CED-9 in the in vivo rows
T3 sequence (looked up): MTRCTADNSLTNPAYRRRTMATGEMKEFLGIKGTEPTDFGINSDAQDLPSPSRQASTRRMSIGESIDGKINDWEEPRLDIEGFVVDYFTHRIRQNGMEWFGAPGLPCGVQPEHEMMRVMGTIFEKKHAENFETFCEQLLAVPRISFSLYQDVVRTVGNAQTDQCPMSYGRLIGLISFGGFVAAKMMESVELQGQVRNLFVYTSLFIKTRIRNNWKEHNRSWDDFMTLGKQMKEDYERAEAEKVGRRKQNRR
The experiment can be described thus: GST-mediated pull-down. The text has this: This example describes the biochemical and functional analysis of EGL-1/CED-9 interactions. To corroborate the structural analysis, mutations on the interface residues of EGL-1 were examined for their potential to weaken or disrupt its binding to CED-9. Various mutant EGL-1 fragments were purified as fusion proteins with glutathione S-transferase (GST) and their interactions with CED-9 were investigated using a GST-mediated pull-down assay. […] Strikingly, substitution of Gly55 by a negatively charged glutamate residue was not sufficient to abolish interaction with CED-9.

The target in experiment [3] is T2, CED-9 protein (residues 1-251). The experiment can be described thus: binding test of GST-EGL-1 fragments with CED-9 (1-251). The method, then: This example describes the characterization of EGL-1/CED-9 interactions. To determine the mechanism of CED-9 recognition by EGL-1, the EGL-1/CED-9 interaction was characterized. Various fragments of the GST-EGL-1 protein were evaluated for their abilities to interact with the CED-9 protein (residues 1-251). […] In contrast, the C-terminal half (residues 45-87 or 45-91) formed a stable complex with CED-9.

For “full-length EGL-1 protein (from UniProt O61667 16-106)”, in the experiment with CED-9 (residues 68-251), the dissociation constant Kd (commonly the free concentration of one partner at which half of the binding sites on the other are occupied at equilibrium, for simple one-to-one binding) turned out to be 6.7 nM.

B1: EGL-1 fragment (residues 48-72) (peptide, UniProt O61667 63-87, looked up)
peptide: SSIGYEIGSKLAAMCDDFDAQMMSY
notes: range 63-87; Used in ITC
B1 returned a Kd in the experiment with CED-9 (residues 68-251) of 6.4 nM.

B2: GST-EGL-1 fragment double mutant (mut2, G55E/F65A) (other, UniProt O61667 60-102, looked up)
chain: SEISSIGYEIESKLAAMCDDADAQMMSYSAHASDRSLFHRLLD
modifications: also: GST fusion in pull-down, placement and linker not given here
notes: GST fusion in the pull-down; also called EGL-1 (G55E/F65A); EGL-1 double mutant; not shown: glutathione S-transferase (GST) fusion partner
Regarding B2, the binding result in experiment [1] and in experiment [2] was “no binding” each time.

B3: GST-EGL-1 fragment quadruple mutant (mut4, G55E/L58A/F65A/M69A) (other, UniProt O61667 60-102, looked up)
chain: SEISSIGYEIESKAAAMCDDADAQAMSYSAHASDRSLFHRLLD
modifications: also: GST fusion in pull-down, placement and linker not given here
notes: GST fusion in the pull-down; not shown: glutathione S-transferase (GST) fusion partner
Regarding B3, in experiment [2], the binding result is on record as “no binding”.

B4: GST-EGL-1 N-terminal half (residues 1-45) (other, UniProt O61667 16-60, looked up)
chain: {GST}-MSNVFDVQSSVFYNEKNMFYSSSQDFSSCEDSSQFADDSGFFDDS
notes: GST placed at the N-terminus by the printed name 'GST-EGL-1'; also called N-terminal half (residues 1-45) of EGL-1; not shown: glutathione S-transferase (GST) fusion partner
For B4, the binding result in experiment [3] is “no binding”.
